Results from US11014896B2, “TRPA1 and TRPV4 inhibitors and methods of using the same for organ-specific inflammation and itch” (Duke University, priority 2014, dated 2021).
Entries after “also recorded” stand apart in the source; their conditions may differ.

How the values were obtained:
TRPV4 [1] = target: T1, TRPV4 (Mus musculus, UniProt Q9EPK8); test: GSK101-evoked Ca++ transient in 1° MK; type: cell-based; conditions: 5 nM GSK101; GSK205 20 μM
T1 construct: endogenous in cells; host or cells: primary mouse epidermal keratinocytes (1° MK), wild type
Experimental: (§1) Ca++ imaging of mouse 1° MK in response to chemical activation of TRPV4 was conducted after loading with 2 μM fura2-AM, following a ratiometric Ca2+ imaging protocol with 340/380 nm […] for dual excitation. Ratios of emissions were acquired at 0.5 Hz. ΔR/R0 was determined as the fraction of the increase of a given ratio over baseline ratio, divided by baseline ratio. For stimulation of cells with UVB, where fura-2 was not suitable because of the proximity of stimulation with 340/380 nm and 295 nm, 2 μM fluo4-AM was used instead. Ca++ imaging was carried out at 488 nm excitation, acquisition of emissions at 0.5 Hz, expressed as ΔF/F0. In the custom-built UV optical system, UV LEDs were capped with a ball lens, a transparent optical window in the shape of a hemispherical lens (FIG. 2B). The LED output optical beam focused at 15-20 mm from the lens, with a spot diameter of approximately 1.5-2.0 mm (FIG. 2C). […] The thermal equilibration stage was set for physiological temperature. We confirmed the non-thermal nature of UVB stimulation using the customized 295 nm LED device in a dedicated experiment (FIG. 2D), thus confirming the specific modality of stimulation as UVB.

TRPV4 [2] = target: T1, TRPV4; test: 4α-PDD-evoked Ca++ signaling in 1° MK (fura-2); type: cell-based; conditions: fura-2 ratiometric imaging
Experimental: as §1

[3] = Nocifensive behavior in response to ET1 footpad injection (von Frey); type: in vivo, mouse; conditions: footpad injection of ET1; WT and oil-treated iKO (control) mice
Experimental: ET1 injections: After determining base-line withdrawal thresholds, each animal received an intraplantar injection of 10 μL 100 nM ET-1 plus contralateral vehicle. Thresholds were again evaluated 1 hour after injection.
Hindpaw mechanical withdrawal thresholds were determined by the automated von Frey hair method, using a 0.5 mm diameter stainless steel filament, part of an automated plantar touch stimulator (Ugo Basile, Modena, Italy). Relevant detail included pre-test acclimatization in a quiet room for 30 min, conducting the test at the same time of day and blinded observers. The stimulus was delivered to the hindpaw, automatically discontinued upon withdrawal, and its intensity recorded automatically. 6-8 trials per animal were conducted, with equal exposure of both hindpaws, leading to an average withdrawal threshold. Results are reported as […], which was calculated by subtracting post-treatment from pre-treatment measurements, expressed as % or relative to 1.0.

[4] = test system: primary mouse keratinocytes (1° MK); test: UVB-evoked Ca++ signaling in primary mouse keratinocytes (fluo-4 imaging); type: cell-based; conditions: GSK205 20 μM
Experimental: Ca++ imaging of 1° MK was conducted following routine procedures. For UVB stimulation, a customized device was built. The system comprised a printed circuit board for electrical interconnects and mechanical support and an ultraviolet light-emitting diode (UV LED).
The operating wavelength was 295 nm (FIG. 2A), with a full-width half-max of 12 nm. The optical power was 500 mW. The focal point was aimed at the plane of the upper surface of the quartz coverslip, which was used to minimize UV absorption along the optical path towards the cells (FIG. 2A-FIG. 2C). The optical intensity at the focal point was estimated to be 150 mW/mm^2.
as §1, with “temperature.” for “temperature. We confirmed the non-thermal nature of UVB stimulation using the customized 295 nm LED device in a dedicated experiment (FIG. 2D), thus confirming the specific modality of stimulation as UVB.”

T1 sequence (Q9EPK8 whole entry): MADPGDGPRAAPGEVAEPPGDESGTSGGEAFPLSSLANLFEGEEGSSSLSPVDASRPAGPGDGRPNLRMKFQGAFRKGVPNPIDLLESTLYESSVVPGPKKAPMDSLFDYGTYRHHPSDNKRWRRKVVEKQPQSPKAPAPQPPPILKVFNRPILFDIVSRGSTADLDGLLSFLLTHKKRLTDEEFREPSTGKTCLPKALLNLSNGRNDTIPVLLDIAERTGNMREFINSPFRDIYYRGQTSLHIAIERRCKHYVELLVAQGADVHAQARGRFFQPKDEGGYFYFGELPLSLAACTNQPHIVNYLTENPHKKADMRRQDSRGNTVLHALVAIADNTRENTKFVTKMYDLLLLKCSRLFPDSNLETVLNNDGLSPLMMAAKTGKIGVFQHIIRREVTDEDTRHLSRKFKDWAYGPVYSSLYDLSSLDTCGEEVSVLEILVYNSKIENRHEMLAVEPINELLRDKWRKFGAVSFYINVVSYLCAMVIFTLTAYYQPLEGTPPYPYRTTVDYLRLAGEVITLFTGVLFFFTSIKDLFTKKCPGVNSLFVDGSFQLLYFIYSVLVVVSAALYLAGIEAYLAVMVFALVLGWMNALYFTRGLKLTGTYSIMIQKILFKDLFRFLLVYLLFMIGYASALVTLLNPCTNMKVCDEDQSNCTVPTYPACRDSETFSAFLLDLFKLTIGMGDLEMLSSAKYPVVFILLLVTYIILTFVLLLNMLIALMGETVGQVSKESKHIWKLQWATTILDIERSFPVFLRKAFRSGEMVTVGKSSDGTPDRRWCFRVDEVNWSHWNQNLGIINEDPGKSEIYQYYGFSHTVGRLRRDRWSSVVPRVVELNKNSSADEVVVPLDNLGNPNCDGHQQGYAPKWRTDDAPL

## ET1: endothelin-1, cognate peptide ligand of endothelin receptors
TRPV4 [1]
  GSK101-evoked Ca++ transient: augmented; also recorded: increase in signal
TRPV4 [2]
  4α-PDD-evoked Ca++ transients on co-application: significant increase in the response
[3]
  mechanical allodynia / von Frey withdrawal thresholds after ET1 injection: significantly lowered; also recorded: significant levels of mechanical allodynia
[4]
  UVB-evoked Ca++ signaling (ΔF/F0): significant increase; also recorded: augmentation
